Measured values reported in US20200371101A1.
Read-outs that look alike come from different tables or passages of the source. Bridge positions count the residues as written; N and C are the ends. Square brackets hold non-standard residues; d marks the D form. Ends that are not written are not given here. Az4 = not defined here

Tests used:
[1] = biological target: His-tagged IDO1 human recombinant protein (71182, BPS Biosciences) (human) (UniProt P14902); assay: ELISA: biotin-PEG3 macrocycle on NeutrAvidin plate, His-tagged human IDO1 titrated, AP-conjugated anti-6XHis antibody, fluorescence
[2] = biological target: His-tagged IDO1 human recombinant protein (71182, BPS Biosciences) (human) (UniProt P14902); assay: sandwich ELISA: biotinylated macrocycle on NeutrAvidin plate, His-tagged IDO1 titrated, anti-6XHis-AP detection
[3] = biological target: His-tagged IDO1 human recombinant protein (71182, BPS Biosciences) (human) (UniProt P14902); assay: ELISA
[4] = biological target: His-tagged IDO1 human recombinant protein (71182, BPS Biosciences) (human) (UniProt P14902); assay: cell-based or functional assay
[5] = biological target: His-tagged IDO1 human recombinant protein (71182, BPS Biosciences) (human) (UniProt P14902); assay: ELISA binding assay
[6] = biological target: His-tagged IDO1 human recombinant protein (71182, BPS Biosciences) (human) (UniProt P14902); assay: ELISA binding assay; small molecule masked as its oxadiazolone (protected)
[7] = biological target: His-tagged IDO1 human recombinant protein (71182, BPS Biosciences) (human) (UniProt P14902); assay: cell-based or functional assay; remark: listed apart in the source
[8] = biological target: His-tagged IDO1 human recombinant protein (71182, BPS Biosciences) (human) (UniProt P14902); assay: binding affinity, assay not named
[9] = biological target: His-tagged IDO1 human recombinant protein (71182, BPS Biosciences) (human) (UniProt P14902); assay: ELISA binding assay; deprotected small molecule (hydroxyamidine free)
[10] = biological target: His-tagged IDO1 human recombinant protein (71182, BPS Biosciences) (human) (UniProt P14902); assay: binding analysis, method not named

Chain of His-tagged IDO1 human recombinant protein (71182, BPS Biosciences) (human) (P14902 2-403 limits assumed): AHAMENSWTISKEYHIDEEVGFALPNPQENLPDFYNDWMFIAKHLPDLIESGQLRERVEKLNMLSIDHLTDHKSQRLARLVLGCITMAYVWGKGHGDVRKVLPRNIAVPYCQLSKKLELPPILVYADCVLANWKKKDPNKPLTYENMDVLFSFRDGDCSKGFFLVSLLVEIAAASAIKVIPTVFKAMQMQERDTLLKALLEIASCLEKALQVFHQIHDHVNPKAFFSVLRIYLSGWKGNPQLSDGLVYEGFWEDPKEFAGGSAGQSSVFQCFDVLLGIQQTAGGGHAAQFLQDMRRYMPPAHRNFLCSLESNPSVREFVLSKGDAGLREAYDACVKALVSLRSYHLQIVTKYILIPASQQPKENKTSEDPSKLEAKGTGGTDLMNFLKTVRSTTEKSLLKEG

B1: Biotin-PEG3-Cy(yray) (peptide)
peptide: YRAY
modifications: all D-amino acids; ring closed by triazole between flanking N-terminal Pra and C-terminal Az4; N-terminal biotin-PEG3
- EC50 [1]: 113 nM

B2: Biotin-PEG3-Cy(wray) (peptide)
peptide: WRAY
modifications: all D-amino acids; ring closed by triazole between flanking N-terminal Pra and C-terminal Az4; N-terminal biotin-PEG3
- EC50 [1]: 79 nM

B3: Biotin-PEG3-Cy(wyaay) (peptide)
peptide: WYAAY
modifications: all D-amino acids; ring closed by triazole between flanking N-terminal Pra and C-terminal Az4; N-terminal biotin-PEG3
- EC50 [1]: 65 nM

B4: Biotin-PEG3-Cy(waray) (peptide)
peptide: WARAY
modifications: all D-amino acids; ring closed by triazole between flanking N-terminal Pra and C-terminal Az4; N-terminal biotin-PEG3
- EC50 [1]: 98 nM

B5: biotin-PEG3-Cy(rffyl) (peptide)
peptide: RFFYL
modifications: all D-amino acids; ring closed by triazole between flanking N-terminal Pra and C-terminal Az4; N-terminal biotin-PEG3
- EC50 [2]: 125 nM

B6: biotin-PEG3-Cy(wyray) (peptide)
peptide: WYRAY
modifications: all D-amino acids; ring closed by triazole between flanking N-terminal Pra and C-terminal Az4; N-terminal biotin-PEG3
- EC50 [2]: 25 nM
- EC50 [3]: 25 nM
- EC50 [1]: 25 nM

B7: Protected-Inh-PEG8-wyvay (peptide)
peptide: [dW][dY][dV][dA][dY]-Az4
modifications: triazole N-C; not fully specified (N-terminus); printed as Protected-Inh-PEG8-wyvay; reading uncertain; also: Inh hydroxyamidine masked as oxadiazolone
- IC50, IDO1 inhibition assay [4]: > 10000 nM
- fold decrease in binding affinity (EC50) against the deprotected heterobiligand [5]: 3 fold
- EC50 [6]: 92 nM

B8: Biotin-PEG3-Cy(ayray) (peptide)
peptide: AYRAY
modifications: all D-amino acids; ring closed by triazole between flanking N-terminal Pra and C-terminal Az4; N-terminal biotin-PEG3
- EC50 [1]: 103 nM

B9: Deprotected-Inh-PEG8-wyvay (peptide)
peptide: [dW][dY][dV][dA][dY]-Az4
modifications: triazole N-C; not fully specified (N-terminus); reading uncertain; also: small molecule Inh joined via PEG8 linker, attachment point not given here
- IC50, IDO1 inhibition assay [4]: 407 nM
- IC50, IDO1 inhibition assay [7]: 350 nM
- Inhibition Recombinant IDO1 IC50 [7]: 407 nM
- EC50 [8]: 36 nM
- EC50 [9]: 34 nM

B10: Biotin-PEG3-Cy(wyry) (peptide)
peptide: WYRY
modifications: all D-amino acids; ring closed by triazole between flanking N-terminal Pra and C-terminal Az4; N-terminal biotin-PEG3
- EC50 [1]: 18 nM

B11: wyvay macrocycle (peptide)
peptide: [dW][dY][dV][dA][dY]
modifications: triazole (positions not given here); also: ring closed by flanking Pra and Az4, not in chain
- EC50 [10]: 45 nM
- EC50 [3]: 45 nM
